Assay results taken from patent US20180362668A1 (JIANGSU ALPHAMAB BIOPHARMACEUTICALS, published 2018).

How the values were obtained:
[1] = target: the molecule itself; test: non-reducing SDS-PAGE densitometry of Protein A-purified co-transfection product; chain A:chain B vectors 1:1
Description: (§1) The cotransfection ratio of recombinant expression vector of the chain A to that of the chain B was 4:1, 1:1 and 1:4.

[2] = target: the molecule itself; test: non-reducing SDS-PAGE of Protein A-purified co-transfection product; chain A:chain B vectors 1:4
Description: (§2) The respective transient transfection products were obtained through Protein A affinity chromatography.

[3] = target: the molecule itself; test: non-reducing SDS-PAGE densitometry of Protein A-purified co-transfection product; chain A:chain B vectors 1:4
Description: as §1

[4] = target: the molecule itself; test: non-reducing SDS-PAGE densitometry of Protein A-purified co-transfection product; chain A:chain B vectors 1:1; remark: listed apart in the source
Description: The cotransfection ratio of recombinant expression vector of the chain A to that of the chain B was 1:1.

[5] = target: the molecule itself; test: as above; remark: listed apart in the source
[6] = target: the molecule itself; test: non-reducing SDS-PAGE densitometry of Protein A-purified co-transfection product; chain A:chain B vectors 4:1
Description: as §1

[7] = target: the molecule itself; test: non-reducing SDS-PAGE of Protein A-purified co-transfection product; chain A:chain B vectors 4:1
Description: as §2

[8] = target: the molecule itself; test: non-reducing SDS-PAGE densitometry of Protein A-purified co-transfection product; chain A:chain B vectors 1:4; remark: listed apart in the source
Description: (§3) The cotransfection ratio of recombinant expression vector of the chain A to that of the chain B was 4:1, 1:1 and 1:4. The transiently expressed culture supernatant was collected after 5-6 days of cultivation.

[9] = target: the molecule itself; test: non-reducing SDS-PAGE densitometry of Protein A-purified co-transfection product; chain A:chain B vectors 4:1; remark: listed apart in the source
Description: as §3

[10] = target: the molecule itself; test: non-reducing SDS-PAGE densitometry of Protein A-purified co-transfection product; chain A:chain B vectors 1:1; remark: listed apart in the source
Description: as §3

| Protein | ScFv-Fc homodimer (%) [1] | ScFv-Fc homodimer (%) [2] | ScFv-Fc homodimer (%) [3] | ScFv-Fc homodimer (%) [4] | ScFv-Fc homodimer (%) [5] | ScFv-Fc homodimer (%) [6] | ScFv-Fc homodimer (%) [7] | ScFv-Fc homodimer (%) [8] | ScFv-Fc homodimer (%) [9] | ScFv-Fc homodimer (%) [10] |
| --- | --- | --- | --- | --- | --- | --- | --- | --- | --- | --- |
| ScFv-Fc fusion protein chain A with Y349C + T366W + K409A (Fc fusion, Positions are EU index; also called combination 4 chain A) EVQLLESGGGVVQPGRSLRLSCIASGFTFSSYPMTWVRQAPGKGLEWVASISYDGSYKYKADSMKGRLTISRDNSKNTLYLEMNSLTAEDTAVYYCARTAFFNAYDFWGQGTLVTVSSASTKGPSVGGGGSGGGGSEIVMTQSPATLSVSPGERATLSCRASQSVRSNLAWYQQKPGQAPRLLIYAASTRATGIPARFSGSGSGTEFTLTISSLQSEDFAVYYCQQYNEWFRTSGQGTKVEIKRDKTHTCPPCPAPELLGGPSVFLFPPKPKDTLMISRTPEVTCVVVDVSHENPEVKFNWYVDGVEVHNAKTKPREEQYNSTYRVVSVLTVLHQDWLNGKEYKCKVSNKALPAPIEKTISKAKGQPREPQVCTLPPSRDELTKNQVSLWCLVKGFYPSDIAVEWESNGQPENNYKTTPPVLDSDGSFFLYSALTVDKSRWQQGNVFSCSVMHEALHNHYTQKSLSLSPGK | 13% | 4% | < 1% | 21% | 10% | 46% | 46% | – | – | – |
| ScFv-Fc fusion protein chain A with T366W + F405K + Y349D + S354D (Fc fusion, Positions are EU index; also called combination 18 chain A) EVQLLESGGGVVQPGRSLRLSCIASGFTFSSYPMTWVRQAPGKGLEWVASISYDGSYKYKADSMKGRLTISRDNSKNTLYLEMNSLTAEDTAVYYCARTAFFNAYDFWGQGTLVTVSSASTKGPSVGGGGSGGGGSEIVMTQSPATLSVSPGERATLSCRASQSVRSNLAWYQQKPGQAPRLLIYAASTRATGIPARFSGSGSGTEFTLTISSLQSEDFAVYYCQQYNEWFRTSGQGTKVEIKRDKTHTCPPCPAPELLGGPSVFLFPPKPKDTLMISRTPEVTCVVVDVSHENPEVKFNWYVDGVEVHNAKTKPREEQYNSTYRVVSVLTVLHQDWLNGKEYKCKVSNKALPAPIEKTISKAKGQPREPQVDTLPPDRDELTKNQVSLWCLVKGFYPSDIAVEWESNGQPENNYKTTPPVLDSDGSFKLYSKLTVDKSRWQQGNVFSCSVMHEALHNHYTQKSLSLSPGK | – | – | – | – | – | – | – | 5% | 29% | 9% |
| ScFv-Fc fusion protein chain A with Y349C + T366W + F405K (Fc fusion, Positions are EU index; also called combination 2 chain A) EVQLLESGGGVVQPGRSLRLSCIASGFTFSSYPMTWVRQAPGKGLEWVASISYDGSYKYKADSMKGRLTISRDNSKNTLYLEMNSLTAEDTAVYYCARTAFFNAYDFWGQGTLVTVSSASTKGPSVGGGGSGGGGSEIVMTQSPATLSVSPGERATLSCRASQSVRSNLAWYQQKPGQAPRLLIYAASTRATGIPARFSGSGSGTEFTLTISSLQSEDFAVYYCQQYNEWFRTSGQGTKVEIKRDKTHTCPPCPAPELLGGPSVFLFPPKPKDTLMISRTPEVTCVVVDVSHENPEVKFNWYVDGVEVHNAKTKPREEQYNSTYRVVSVLTVLHQDWLNGKEYKCKVSNKALPAPIEKTISKAKGQPREPQVCTLPPSRDELTKNQVSLWCLVKGFYPSDIAVEWESNGQPENNYKTTPPVLDSDGSFKLYSKLTVDKSRWQQGNVFSCSVMHEALHNHYTQKSLSLSPGK | – | < 1% | – | 17% | 10% | – | 23% | < 1% | 28% | 9% |
| ScFv-Fc fusion protein chain A with Y349C + T366W (Fc fusion, also called combination KH chain A; combination 1 chain A) EVQLLESGGGVVQPGRSLRLSCIASGFTFSSYPMTWVRQAPGKGLEWVASISYDGSYKYKADSMKGRLTISRDNSKNTLYLEMNSLTAEDTAVYYCARTAFFNAYDFWGQGTLVTVSSASTKGPSVGGGGSGGGGSEIVMTQSPATLSVSPGERATLSCRASQSVRSNLAWYQQKPGQAPRLLIYAASTRATGIPARFSGSGSGTEFTLTISSLQSEDFAVYYCQQYNEWFRTSGQGTKVEIKRDKTHTCPPCPAPELLGGPSVFLFPPKPKDTLMISRTPEVTCVVVDVSHENPEVKFNWYVDGVEVHNAKTKPREEQYNSTYRVVSVLTVLHQDWLNGKEYKCKVSNKALPAPIEKTISKAKGQPREPQVCTLPPSRDELTKNQVSLWCLVKGFYPSDIAVEWESNGQPENNYKTTPPVLDSDGSFFLYSKLTVDKSRWQQGNVFSCSVMHEALHNHYTQKSLSLSPGK | – | 10% | – | – | – | – | 52% | – | – | – |
| ScFv-Fc fusion protein chain A with Y349C + T366W + K409E (Fc fusion, Positions are EU index; also called combination 3 chain A) EVQLLESGGGVVQPGRSLRLSCIASGFTFSSYPMTWVRQAPGKGLEWVASISYDGSYKYKADSMKGRLTISRDNSKNTLYLEMNSLTAEDTAVYYCARTAFFNAYDFWGQGTLVTVSSASTKGPSVGGGGSGGGGSEIVMTQSPATLSVSPGERATLSCRASQSVRSNLAWYQQKPGQAPRLLIYAASTRATGIPARFSGSGSGTEFTLTISSLQSEDFAVYYCQQYNEWFRTSGQGTKVEIKRDKTHTCPPCPAPELLGGPSVFLFPPKPKDTLMISRTPEVTCVVVDVSHENPEVKFNWYVDGVEVHNAKTKPREEQYNSTYRVVSVLTVLHQDWLNGKEYKCKVSNKALPAPIEKTISKAKGQPREPQVCTLPPSRDELTKNQVSLWCLVKGFYPSDIAVEWESNGQPENNYKTTPPVLDSDGSFFLYSELTVDKSRWQQGNVFSCSVMHEALHNHYTQKSLSLSPGK | – | – | – | – | 25% | – | – | – | – | – |
